B1: GLTSCR2 (parent)
chain: FQRRNMIEPRERAKFKRKYKVKLV
B2: ZNF232 (parent)
chain: GKAYGWCSELIRHRRVHARKEPSH

Variants of: B1
Test: protein stability index of a GFP-peptide fusion (GPS, HEK-293T) (PSI 1-6); higher = more stable
Settings: c terminus: a fixed tail appended
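Also: lentivirally expressed fusions sorted by FACS into six bins by GFP to DsRed ratio, PSI derived from sequencing read proportions per bin multiplied by bin number.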

Protein stability index: each site, then its substitutions
F1: D 2.83 | V 2.81 | A 3.04 | I 3.03 | L 3.01 | S 2.77 | R 3.03 | Y 2.51 | K 2.96 | Q 2.99 | E 2.57 | N 2.59 | T 3.11 | H 2.69 | M 2.08 | C 2.69 | W 2.41 | P 3.05
R3: C 2.38 | Q 2.26 | W 1.58 | A 2.8 | P 1.96 | K 2.6 | I 2.17 | H 1.93 | M 2.68 | T 1.79 | N 2.66 | F 1.75 | S 1.65 | Y 1.6 | V 2.04 | G 2.17 | E 2.69 | D 2.71 | L 2.37
M6: T 3.15 | E 3.08 | C 1.74 | A 2.56 | P 2.25 | D 2.31 | N 2.27 | W 3.61 | L 1.63 | F 1.93 | S 3.25 | I 2.25 | H 2.33 | Q 2.74 | Y 2.48 | V 2.14 | K 2.52 | G 2.57 | R 2.92
E8: A 2.7
R4: L 2.51 | W 1.96 | Q 2.85 | T 2.6 | S 2.35 | D 1.98 | H 2.13 | E 2 | N 2.7 | M 1.86 | Y 2.42 | V 3.02 | G 1.9 | K 1.95 | A 2.21 | C 2.02 | I 2.14 | P 1.73
Q2: M 2.7 | T 2.65 | H 2.21 | F 1.58 | L 1.94 | V 1.57 | K 2.21 | E 2.3 | A 1.99 | I 2.08 | N 2.42 | S 2.43 | R 2.62 | P 2.06 | D 2.35 | W 1.84 | C 1.99 | G 2.3 | Y 2.08
N5: Y 2.33 | L 2.83 | K 2.42 | D 2.23 | Q 2.36 | I 2.36 | M 2.5 | T 1.88 | W 2.1 | C 2.62 | S 2.02 | V 2.29 | R 2.56 | F 1.59 | P 2.36 | G 2.57 | H 1.88 | A 2.59 | E 3.05
I7: C 2.78 | H 1.87 | Q 2.24 | S 3.04 | K 2.1 | F 2.2 | V 2.24 | N 2.64 | Y 1.92 | P 2.25 | E 2.22 | R 2.46 | W 1.9 | A 2.15 | T 2.31 | M 2.67 | L 1.99 | D 3.27 | G 2.35

Variants of: B2
Test: as above
Settings: c terminus: a fixed tail appended

Protein stability index, by site and new letter:
S23: I 2.48 | E 3.92 | T 3.03 | R 2.93 | Y 2.19 | W 1.76 | V 2.82 | Q 2.98 | L 2.54 | P 2.95 | N 3.05 | M 2.12 | K 3.49 | F 2.43 | G 3.32 | H 3.16
H24: V 3.54 | W 2.03 | R 3.15 | G 3.7 | S 3.07 | M 2.5 | N 3.65 | I 2.49 | Q 2.25 | D 3.61 | L 2.68 | A 3.08 | P 3.08 | E 2.44 | Y 2.46 | K 3.55 | F 2.65 | C 2.78 | T 2.97

From the supplement of paper PMC10567573
